Source: patent publication US20080063717A1

Assays:
[1] = target: NKp46 receptor (human) (UniProt O76036); assay: cell-based or functional assay
[2] = target: human NKp30 receptor (human); assay: cell-based or functional assay
human NKp30 receptor (human), sequence (chain, as listed by the source limits assumed): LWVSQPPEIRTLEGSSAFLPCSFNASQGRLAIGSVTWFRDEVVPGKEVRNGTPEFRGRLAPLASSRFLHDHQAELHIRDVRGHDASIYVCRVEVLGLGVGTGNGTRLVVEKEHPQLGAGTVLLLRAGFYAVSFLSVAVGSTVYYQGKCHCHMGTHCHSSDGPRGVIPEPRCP

UniProt O76036, sequence (O76036 22-304): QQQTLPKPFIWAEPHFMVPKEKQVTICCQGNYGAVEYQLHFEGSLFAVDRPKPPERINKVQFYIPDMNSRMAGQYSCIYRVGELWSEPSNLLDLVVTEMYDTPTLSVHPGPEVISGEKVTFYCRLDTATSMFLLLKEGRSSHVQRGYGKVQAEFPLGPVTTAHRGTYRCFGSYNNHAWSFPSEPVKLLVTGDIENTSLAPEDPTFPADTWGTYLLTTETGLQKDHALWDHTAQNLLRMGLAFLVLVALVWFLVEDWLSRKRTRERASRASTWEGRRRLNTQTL

Row | Substance | cells remaining with fluorescence intensity equivalent to resting cells (no division), CFSE, day 6 [1] [%] | cells in the culture at day 6 that underwent more than 5 divisions (CFSE) [2] [%] | cells remaining with fluorescence intensity equivalent to resting cells (no division), CFSE, day 6 [2] [%] | dose to obtain 50% of maximum effect (NK cell proliferation from PBMC, titration of antibody with IL-2 and IL-15, 3 donors) [2] [µg/mL] | plateau of the antibody's effect on NK cell proliferation (titration with IL-2 and IL-15, 3 donors) [2] [µg/mL]
1 | Bab281 (anti-NKp46) monoclonal antibody | 11 | – | – | – | –
2 | AZ20 (anti-NKp30) monoclonal antibody | – | > 80 | 5 | < 0.1 | 1
